These results are taken from patent publication US20100048604A1, “Ligands for Aldoketoreductases” (priority 2004, published 2010).

Holding throughout (test): Steady state kinetic parameters of fluorogenic substrates with purified AKR1C isozymes
Holding throughout (type): biochemical, human
What all share (settings): other: isozyme 1C2, potassium phosphate buffer pH 6, NADPH, fluorimetric

Substrate in series [1]: CC(=O)c1cc(=O)oc2cc(N(C)C)ccc12
An excerpt: (§1) AKR1C2 and AKR1C3 Selective Probes: Probes (5a-5i) were examined as substrates for the four purified human HSD isozymes (AKR1C1-AKR1C4) under standard assay conditions [catalytic quantities of enzyme, an excess of cofactor (NADPH)]. The initial reaction rates were used to derive standard kinetic parameters (kcat and Km, Materials and Methods).
(§2) Substrate tolerance of AKR1Cs: Isozyme Activity with 5a-5i: Activity of the second generation of fluorogenic substrates with the AKR1C isozymes was determined as follows. To a STARNA semi-micro fluorimeter cell (with 4 polished windows) was added 100 μL of 1 M potassium phosphate buffer (pH 6), 840 μL doubly deionized water, and 20 μL of 12.5 mM NADPH. After mixing the aqueous components thoroughly, 20 μL of acetonitrile was added as a cosolvent and mixed well. 20 μL of 2.5 mM second generation fluorogenic ketone in acetonitrile (5a-5i) was then added and mixed. 4 μL of undiluted AKR1C (provided generously by the Penning lab at concentrations of 2.5 mg/mL) were then added to the cuvette for a total of 10 μg purified enzyme in the 1 mL assay volume. Fluorescence arising from the respective alcohol reduction product was then monitored over the course of 5-10 minutes.
(§3) Binding constant and catalytic rates (Km and kcat) of the second generation of fluorogenic substrates was determined as follows. To a STARNA semi-micro fluorometer cell (with 4 polished windows) was added 100 μL of 1 M potassium phosphate buffer (pH 6), 840 μL doubly deionized water, and 20 AL of 12.5 mM NADPH. After mixing the aqueous components thoroughly, 20 μL of acetonitrile was added as a cosolvent and mixed well. 20 μL of the second generation fluorogenic ketone (5a-5i) was then added and mixed to achieve assay concentrations of 5Km to Km/5. To initiate the reduction, 2 or 4 μL of diluted AKR1C (1:2 to 1:100, depending on the kinetics of a particular isozyme's reduction of a substrate) was then added to the cuvette. Fluorescence arising from the respective alcohol reduction product was then monitored over the course of 3 minutes (Excitation and emission band pass slits both at 4 nm, lamp 700 V, λexc 410 nm, λem 510). The rate of product formation, expressed in units of nanomoles per minute, were calculated according to previously published procedures (Wierzchowski, J.; Dafeldecker, W. P.; Holmquist, B.; Vallee, B. L. Anal. Biochem. 1989, 178, 57-62):
(§4) initial rate=[nst×(Ft−F0)/(Fst)]/t (1)
(§5) where Ft and F0 represent the fluorescence at times t and 0 minutes, nst is the nanomoles of product in a known concentration of product, and Fst is the fluorescence resulting from nst of product. Kinetic parameters were approximated by GraFit (Erithacus Software, Surrey, UK) nonlinear regression analysis program to fit the untransformed data to a hyperbolic function as originally described (Wierzchowski, J.; Dafeldecker, W. P.; Holmquist, B.; Vallee, B. L. Anal. Biochem. 1989, 178, 57-62). Reported enzymatic kinetic parameters are the average of three independent determinations from three different preparations of substrate and enzyme.

Substrate in series [2]: CC(=O)c1cc(=O)oc2c3c(ccc12)NCCC3
Text: as §1, §2, §3, §4, §5

Substrate in series [3]: O=C1CCc2c1c1cc3c4c(c1oc2=O)CCCN4CCC3
Text: as §1, §2, §3, §4, §5

Substrate in series [4]: CC(=O)c1cc(=O)oc2cc3c(cc12)CCCN3
Text: as §1, §2, §3, §4, §5

Substrate in series [5]: O=C(c1ccccc1)c1cc(=O)oc2c3c4c(cc12)CCCN4CCC3
Text: as §1, §2, §3, §4, §5

Substrate in series [6]: CC(=O)c1cc(=O)oc2c3c4c(cc12)CCCN4CCC3
Text: as §1, §2, §3, §4, §5

B1: AKR1C2 (Homo sapiens) (protein)
chain: MDSKYQCVKLNDGHFMPVLGFGTYAPAEVPKSKALEAVKLAIEAGFHHIDSAHVYNNEEQVGLAIRSKIADGSVKREDIFYTSKLWSNSHRPELVRPALERSLKNLQLDYVDLYLIHFPVSVKPGEEVIPKDENGKILFDTVDLCATWEAMEKCKDAGLAKSIGVSNFNHRLLEMILNKPGLKYKPVCNQVECHPYFNQRKLLDFCKSKDIVLVAYSALGSHREEPWVDPNSPVLLEDPVLCALAKKHKRTPALIALRYQLQRGVVVLAKSYNEQRIRQNVQVFEFQLTSEEMKAIDGLNRNVRYLTLDIFAGPPNYPFSDEY
notes: gift of the Penning lab (University of Pennsylvania School of Medicine)
For B1, the Michaelis-Menten constant (Km) is 7.2 µM in series [1]; 4.8 µM in series [2]; 4.5 µM in series [3]; 43.3 ± 4.4 4.3 ± 0.2 μM in series [4]; 3 µM in series [5]; 7.3 µM in series [6]. For the same protein, in series [3], the kcat is 1.6 0.40 7.2 no activity. Moreover, the kcat/Km in series [3] was 0.39 0.08 56 min^−1 μM^−1.
